According to article PMC8998557, “A Novel Family of Winged-Helix Single-Stranded DNA-Binding Proteins from Archaea”:

Assays:
[1] = target: T1, Sul7s (Sulfolobus islandicus Rey15A, UniProt F0NBY5 1-59); assay: NMR; 0.7 mM 15N/13C protein, HSQC titration; BLI: 50 mM Tris-Cl pH 7.5, 100 mM NaCl, 1 mM EDTA, 0.02% Tween-20, 30 C; NMR: 20 mM potassium phosphate pH 7.0, 30 mM NaCl, 0.02% NaN3, 298 K; conditions: protein: recombinant; tags: untagged
T1 sequence: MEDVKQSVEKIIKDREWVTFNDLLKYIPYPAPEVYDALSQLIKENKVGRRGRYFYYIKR

[2] = target: T1, Sul7s; assay: BLI; BLI: 50 mM Tris-Cl pH 7.5, 100 mM NaCl, 1 mM EDTA, 0.02% Tween-20, 30 C; NMR: 20 mM potassium phosphate pH 7.0, 30 mM NaCl, 0.02% NaN3, 298 K; conditions: protein: recombinant, tags: untagged
[3] = target: T2, Sul7s R49A (Sulfolobus islandicus Rey15A, UniProt F0NBY5 1-59, R49A); assay: BLI; barely detected up to 80 uM protein; BLI: 50 mM Tris-Cl pH 7.5, 100 mM NaCl, 1 mM EDTA, 0.02% Tween-20, 30 C; NMR: 20 mM potassium phosphate pH 7.0, 30 mM NaCl, 0.02% NaN3, 298 K; conditions: protein: recombinant; tags: untagged; label: 5'-biotin
T2 sequence: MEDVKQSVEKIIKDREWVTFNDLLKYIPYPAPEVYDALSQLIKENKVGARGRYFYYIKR

[4] = target: T3, Sul7s R59A (Sulfolobus islandicus Rey15A, UniProt F0NBY5 1-59, R59A); assay: as above; conditions: protein: recombinant; tags: untagged; label: 5'-biotin
T3 sequence: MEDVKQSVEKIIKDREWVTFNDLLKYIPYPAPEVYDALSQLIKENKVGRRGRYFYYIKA

[5] = target: T4, Sul7s R52A (Sulfolobus islandicus Rey15A, UniProt F0NBY5 1-59, R52A); assay: as above; conditions: protein: recombinant; tags: untagged; label: 5'-biotin
T4 sequence: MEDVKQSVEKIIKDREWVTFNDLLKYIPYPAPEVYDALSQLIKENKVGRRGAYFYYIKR

[6] = target: T5, Sul7s D36A (Sulfolobus islandicus Rey15A, UniProt F0NBY5 1-59, D36A); assay: BLI; text calls decrease marginal, in conflict with table value; BLI: 50 mM Tris-Cl pH 7.5, 100 mM NaCl, 1 mM EDTA, 0.02% Tween-20, 30 C; NMR: 20 mM potassium phosphate pH 7.0, 30 mM NaCl, 0.02% NaN3, 298 K; conditions: protein: recombinant; tags: untagged; label: 5'-biotin
T5 sequence: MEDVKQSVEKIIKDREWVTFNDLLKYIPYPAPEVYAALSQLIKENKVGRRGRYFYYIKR

[7] = target: T6, Sul7s K58A (Sulfolobus islandicus Rey15A, UniProt F0NBY5 1-59, K58A); assay: BLI; BLI: 50 mM Tris-Cl pH 7.5, 100 mM NaCl, 1 mM EDTA, 0.02% Tween-20, 30 C; NMR: 20 mM potassium phosphate pH 7.0, 30 mM NaCl, 0.02% NaN3, 298 K; conditions: protein: recombinant; tags: untagged; label: 5'-biotin
T6 sequence: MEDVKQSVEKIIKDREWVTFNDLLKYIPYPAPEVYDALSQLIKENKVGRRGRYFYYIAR

[8] = target: T7, Sul7s W17A (Sulfolobus islandicus Rey15A, UniProt F0NBY5 1-59, W17A); assay: as above; conditions: protein: recombinant; tags: untagged; label: 5'-biotin
T7 sequence: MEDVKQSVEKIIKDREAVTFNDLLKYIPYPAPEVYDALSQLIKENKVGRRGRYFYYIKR

[9] = target: T8, Sul7s T19G (Sulfolobus islandicus Rey15A, UniProt F0NBY5 1-59, T19G); assay: as above; conditions: protein: recombinant; tags: untagged; label: 5'-biotin
T8 sequence: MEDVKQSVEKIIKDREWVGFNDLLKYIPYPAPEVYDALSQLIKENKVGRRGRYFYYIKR

[10] = target: T9, Sul7s K43A (Sulfolobus islandicus Rey15A, UniProt F0NBY5 1-59, K43A); assay: as above; conditions: protein: recombinant; tags: untagged; label: 5'-biotin
T9 sequence: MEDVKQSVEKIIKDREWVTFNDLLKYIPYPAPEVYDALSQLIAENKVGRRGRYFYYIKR

[11] = target: T10, Sul7s Y56A (Sulfolobus islandicus Rey15A, UniProt F0NBY5 1-59, Y56A); assay: as above; conditions: protein: recombinant; tags: untagged; label: 5'-biotin
T10 sequence: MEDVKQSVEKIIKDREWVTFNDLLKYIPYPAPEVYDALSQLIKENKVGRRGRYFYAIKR

[12] = target: T11, Sul7s K13A (Sulfolobus islandicus Rey15A, UniProt F0NBY5 1-59, K13A); assay: as above; conditions: protein: recombinant; tags: untagged; label: 5'-biotin
T11 sequence: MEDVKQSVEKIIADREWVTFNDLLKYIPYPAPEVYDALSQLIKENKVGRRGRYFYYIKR

[13] = target: T12, Sul7s E33A (Sulfolobus islandicus Rey15A, UniProt F0NBY5 1-59, E33A); assay: as above; conditions: protein: recombinant; tags: untagged; label: 5'-biotin
T12 sequence: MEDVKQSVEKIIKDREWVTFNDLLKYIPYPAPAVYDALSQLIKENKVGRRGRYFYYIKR

[14] = target: T13, Sul7s N21A (Sulfolobus islandicus Rey15A, UniProt F0NBY5 1-59, N21A); assay: as above; conditions: protein: recombinant; tags: untagged; label: 5'-biotin
T13 sequence: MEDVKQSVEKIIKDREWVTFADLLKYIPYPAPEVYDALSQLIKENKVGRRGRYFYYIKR

[15] = target: T14, Sul7s R15A (Sulfolobus islandicus Rey15A, UniProt F0NBY5 1-59, R15A); assay: as above; conditions: protein: recombinant; tags: untagged; label: 5'-biotin
T14 sequence: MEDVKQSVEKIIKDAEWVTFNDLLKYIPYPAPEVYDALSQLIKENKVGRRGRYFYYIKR

[16] = target: T15, Sul7s D3A (Sulfolobus islandicus Rey15A, UniProt F0NBY5 1-59, D3A); assay: as above; conditions: protein: recombinant; tags: untagged; label: 5'-biotin
T15 sequence: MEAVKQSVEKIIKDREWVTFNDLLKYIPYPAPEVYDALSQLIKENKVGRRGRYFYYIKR

Binder: GTAGTCAGACACAGTAGTTC (ssDNA) [S20-F]
- binding result [1]: binds

Binder: TTTTTTTTTTTTTTTTTTTTTTTTTTTTTT (ssDNA) [T30]
- Kd ([2]; label: 5'-biotin): 1.19 ± 0.3 µM

B1: D30 (dsDNA)
DNA 1: TTTCTACCCTTTGGTGCTAATGCCCATACT
DNA 2: AGTATGGGCATTAGCACCAAAGGGTAGAAA
- Kd ([2]; label: 5'-biotin on strand 1, blunt): 76.8 ± 16.9 µM

Binder: CTGGGGGCTGGGGGCTGGGGGCTGGGGGCT (ssDNA) [G-rich30]
- Kd ([2]; label: 5'-biotin): 17.5 ± 4.8 µM

Binder: TTTCTACCCTTTGGTGCTAATGCCCATACT (ssDNA) [S30 (S30-F)]
- binding result [3]: no binding
- binding result [4]: no binding
- binding result [5]: no binding
- Kd [6]: 88.3 µM
- Kd [7]: 26.9 µM
- Kd [8]: 10.7 µM
- Kd [9]: 14.1 µM
- Kd [10]: 27.9 µM
- Kd [11]: 15.6 µM
- Kd [12]: 30.4 µM
- Kd [13]: 1.21 µM
- Kd [14]: 8.92 µM
- Kd [15]: 4.67 µM
- Kd ([2]; label: 5'-biotin): 5.62 ± 0.95 µM
- Kd [16]: 6.01 µM
